This note sets out measurements from publication PMC4480132, “MAF1 represses CDKN1A through a Pol III-dependent mechanism”.

In the series the target is T1, MAF1 (His-tagged, Fitzgerald 80R-1955) (UniProt Q9H063 1-256).
T1 sequence: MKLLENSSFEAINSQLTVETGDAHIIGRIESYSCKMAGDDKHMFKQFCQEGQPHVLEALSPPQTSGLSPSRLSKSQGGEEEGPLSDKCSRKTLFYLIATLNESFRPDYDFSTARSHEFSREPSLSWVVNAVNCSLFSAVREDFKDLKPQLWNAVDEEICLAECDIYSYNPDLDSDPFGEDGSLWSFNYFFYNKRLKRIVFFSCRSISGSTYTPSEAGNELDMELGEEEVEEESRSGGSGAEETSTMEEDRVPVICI
Description: colorimetric DNA-protein binding assay (ab117139); 40 ng biotin probe, 500 ng MAF1; IP-qPCR: 20 mM HEPES pH 7.6, 150 mM NaCl, 0.25 mM EDTA, 10% glycerol, 0.2% NP40, 1 mM DTT, 200 ng BSA, 50 ul, 20 ng DNA, 400 ng MAF1, 4 C/ice; colorimetric: Abcam ab117139 kit conditions. The settings on record: protein: commercial; tags: His6; label: 5' biotin (probe).

B1: p21 A-box probe (CDKN1A MIR3) (dsDNA)
DNA 1: AATCAACAACTTTGTATACTTAAGTTCAGTGGACCTCAATTTCCTCATCTGTGAAATAAA
DNA 2: TTTATTTCACAGATGAGGAAATTGAGGTCCACTGAACTTAAGTATACAAAGTTGTTGATT
For the molecule B1, the binding result is reported as “binds”.
